US20240101668A1 (WUGEN, published 2024)

Tests used:
Assay in all cases: FACS on cells
[1] = biological target: T1, huFLT3-M227 stably expressed on Ramos cells (human, UniProt P36888 27-993)
T1 construct: whole, on cells; also called FLT3 Mutant

[2] = biological target: T2, huCD33-G69 stably expressed on Jurkat cells (human, UniProt P20138 18-364)
T2 construct: whole, on cells; >200,000 receptors per cell; also called CD33 Mutant; CD33 R69G
Method: (§1) Jurkat cells were engineered to stably express either the huCD33-R69 or huCD33-G69 variant at >200,000 receptors per cell. Parental, huCD33-R69, and huCD33-G69 Jurkat cell lines were stained with differing levels of CellTrace Violet Cell Proliferation Kit (ThermoFisher, cat. #C34557) to barcode each cell line. Barcoded Jurkat cell lines were fixed with paraformaldehyde and incubated with myc-labeled scFv periplasmic extracts and a secondary anti-myc PE-conjugated monoclonal antibody. Appropriate positive and negative controls were used. Stained cells were analyzed by flow cytometry (CytoFLEX, Beckman Coulter, Inc.) and binding was assessed by change in PE mean fluorescence intensity (MFI) of the barcoded cell populations.
(§2) Data is disclosed below in Table 16c, reporting FACS fold change over parental as (−), indicating <2 fold; (+), indicating 2-10 fold; (++), indicating 10-30 fold; and (+++), indicating >30 fold.

[3] = biological target: T3, huCD33-R69 stably expressed on Jurkat cells (human, UniProt P20138 18-364)
T3 construct: whole, on cells; >200,000 receptors per cell; also called CD33 WT; CD33^ARG69
T3 sequence (P20138 18-364): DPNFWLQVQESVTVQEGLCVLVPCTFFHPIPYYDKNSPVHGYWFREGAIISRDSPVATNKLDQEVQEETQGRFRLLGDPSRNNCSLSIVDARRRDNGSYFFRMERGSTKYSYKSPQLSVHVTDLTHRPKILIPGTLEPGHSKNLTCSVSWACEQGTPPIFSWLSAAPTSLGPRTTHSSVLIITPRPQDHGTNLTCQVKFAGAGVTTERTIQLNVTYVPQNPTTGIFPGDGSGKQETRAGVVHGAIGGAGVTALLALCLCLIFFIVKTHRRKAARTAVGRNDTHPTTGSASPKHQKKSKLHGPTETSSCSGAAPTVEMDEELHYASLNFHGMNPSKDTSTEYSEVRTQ
Method: as §1, §2

T2 sequence (P20138 18-364 R69G): as the sequence (P20138 18-364) above, with R52G counted along it
T1 sequence (P36888 27-993 T227M): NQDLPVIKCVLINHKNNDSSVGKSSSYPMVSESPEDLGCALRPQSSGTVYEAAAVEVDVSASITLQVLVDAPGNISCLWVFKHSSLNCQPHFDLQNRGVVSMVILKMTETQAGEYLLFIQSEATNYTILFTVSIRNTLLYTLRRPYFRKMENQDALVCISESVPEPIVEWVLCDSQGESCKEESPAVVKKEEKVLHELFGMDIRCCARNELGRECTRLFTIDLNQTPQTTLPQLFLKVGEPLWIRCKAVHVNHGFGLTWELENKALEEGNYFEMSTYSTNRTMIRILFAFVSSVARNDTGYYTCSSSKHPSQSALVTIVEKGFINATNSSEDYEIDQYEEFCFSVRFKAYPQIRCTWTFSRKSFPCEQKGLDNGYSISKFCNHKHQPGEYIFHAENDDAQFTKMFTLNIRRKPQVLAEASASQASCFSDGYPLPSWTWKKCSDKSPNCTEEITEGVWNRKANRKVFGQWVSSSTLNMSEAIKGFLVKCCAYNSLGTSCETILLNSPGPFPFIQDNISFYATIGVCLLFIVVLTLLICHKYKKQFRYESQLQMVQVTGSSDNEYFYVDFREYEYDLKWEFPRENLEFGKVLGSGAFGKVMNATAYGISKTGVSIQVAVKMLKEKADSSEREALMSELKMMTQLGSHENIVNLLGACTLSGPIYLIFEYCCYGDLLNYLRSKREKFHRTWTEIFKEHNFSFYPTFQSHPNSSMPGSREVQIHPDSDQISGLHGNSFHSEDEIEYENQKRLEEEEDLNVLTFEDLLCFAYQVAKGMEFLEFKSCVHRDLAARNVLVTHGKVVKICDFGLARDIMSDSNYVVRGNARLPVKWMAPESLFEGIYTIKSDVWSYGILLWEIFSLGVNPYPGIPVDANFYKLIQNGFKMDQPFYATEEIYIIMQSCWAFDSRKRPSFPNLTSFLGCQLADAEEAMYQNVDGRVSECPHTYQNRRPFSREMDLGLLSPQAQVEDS

Binder | FACS geometric mean fold change over Jurkat parental [1] [fold] | FACS geometric mean fold change over Jurkat parental [2] [fold] | FACS geometric mean fold change over Jurkat parental [3] [fold]
Polypeptide No. 245 (scFv, V domains shown, scFv) VH: QVQLVQSGAEVKKPGSSVKVSCKASGYTFTGFYIHWVRQAPGQGLEWMGGVIPFFSRTIYAQKFQGRVTITADESTSTAYMELSSLRSEDTAVYYCAYGANGHLYGMDAWGQGTTVTVSS VL: EIVMTQSPATLSVSPGERATLSCRASQSVSSSYLAWYQQKPGQAPRLLIYGASTRATGIPARFSGSGSGTEFTLTISSLQSEDFAVYYCQQYSSSPLTFGQGTKVEIKR | 2 to 10 | – | –
Polypeptide No. 268 (scFv, V domains shown, scFv) VH: QVQLVQSGAEVKKPGSSVKVSCKASGGTFSTYALSWVRQAPGQGLEWMGGVIPVFGTTDYAHKFQGRVTITADESTSTAYMELSSLRSEDTAVYYCASMIIFGAGGWDAYYFQEWGQGTLVTVSS VL: EIVMTQSPATLSVSPGERATLSCRASQSVNNNQLAWYQQKPGQAPRLLIYDTSSRATGIPARFSGSGSGTEFTLTISSLQSEDFAVYYCQQYDTSPYTFGQGTKVEIKR | 2 to 10 | – | –
Polypeptide No. 250 (scFv, V domains shown, scFv) VH: QVQLVQSGAEVKKPGSSVKVSCKASGYTLTSFAMHWVRQAPGQGLEWMGRIIPMSGTANYAQKFQGRVTITADESTSTAYMELSSLRSEDTAVYYCASTSPDQYYYGMDVWGQGTTVTVSS VL: EIVMTQSPATLSVSPGERATLSCRASQSVGSSSLAWYQQKPGQAPRLLIYGASTRATGIPARFSGSGSGTEFTLTISSLQSEDFAVYYCQQYGSSPYTFGQGTKVEIKR | 2 to 10 | – | –
Polypeptide No. 89 (scFv, V domains shown, scFv) VH: QVQLVQSGAEVKKPGASVKVSCKASGYTFTNYYMHWVRQAPGQGLEWMGWINPNSGDTNYEQKFQGRVTMTRDTSTSTVYMELSSLRSEDTAVYYCARDDRIQLWVPLVFWGQGTLVTVSS VL: DIQMTQSPSSLSASVGDRVTITCRASQGISNYLAWYQQKPGKAPKLLIYSASNLQSGVPSRFSGSGSGTDFTLTISSLQPEDFATYYCQQSFSTPFTFGQGTKLEIKR | – | 10 to 30 | 10 to 30
Polypeptide No. 90 (scFv, V domains shown, scFv) VH: EVQLLESGGGLVQPGGSLRLSCAASGFTFSNSDMNWVRQAPGKGLEWVSYISGTGSTIYYADSVKGRFTISRDNSKNTLYLQMNSLRAEDTAVYYCAKDYDSSYGSGYYGMDVWGQGTTVTVSS VL: DIQMTQSPSSLSASVGDRVTITCRASQSIYNYLNWYQQKPGKAPKLLIYAASNLQSGVPSRFSGSGSGTDFTLTISSLQPEDFATYYCQQYGNAPLTFGQGTKVEIKR | – | > 30 | > 30
Polypeptide No. 193 (scFv, V domains shown, scFv) VH: EVQLLESGGGLVQPGGSLRLSCAASGFTFSNSDMNWVRQAPGKGLEWVSYISGTGSTIYYADSVKGRFTISRDNSKNTLYLQMNSLRAEDTAVYYCAKDYDSSYGSGYYGMDVWGQGTTVTVSS VL: DIQMTQSPSSLSASVGDRVTITCRASQSIYNYLNWYQQKPGKAPKLLIYAASNLQSGVPSRFSGSGSGTDFTLTISSLQPEDFATYYCQQYGNAPLTFGQGTKVEIKR | – | > 30 | > 30
Polypeptide No. 192 (scFv, V domains shown, scFv) VH: QVQLVQSGAEVKKPGASVKVSCKASGYTFTNYYMHWVRQAPGQGLEWMGWINPNSGDTNYEQKFQGRVTMTRDTSTSTVYMELSSLRSEDTAVYYCARDDRIQLWVPLVFWGQGTLVTVSS VL: DIQMTQSPSSLSASVGDRVTITCRASQGISNYLAWYQQKPGKAPKLLIYSASNLQSGVPSRFSGSGSGTDFTLTISSLQPEDFATYYCQQSFSTPFTFGQGTKLEIKR | – | 10 to 30 | 10 to 30
Polypeptide No. 100 (scFv, V domains shown, scFv) VH: QVQLVQSGAEVKKPGASVKVSCKASGATRSWMHWVRQAPGQGLEWMGIINPSGDSTSYAQKFQGRVTMTRDTSTSTVYMELSSLRSEDTAVYYCAKEPYSSSPYYFDYWGQGTLVTVSS VL: DIQMTQSPSSLSASVGDRVTITCRASQSISSWLAWYQQKPGKAPKLLIYGASSLQSGVPSRFSGSGSGTDFTLTISSLQPEDFATYYCQQSYTTPITFGQGTRLEIKR | – | 10 to 30 | 10 to 30
Polypeptide No. 108 (scFv, V domains shown, scFv) VH: QVQLVQSGAEVKKPGASVKVSCKASGYTFTNYDINWVRQAPGQGLEWMGWMNPNSGNTGLVEKFQGRVTMTRDTSTSTVYMELSSLRSEDTAVYYCARGWGHGYGDYKFDYWGQGTLVTVSS VL: not shown | – | 10 to 30 | 10 to 30
Polypeptide No. 91 (scFv, V domains shown, scFv) VH: QVQLVQSGAEVKKPGASVKVSCKASGGTFSSYAISWVRQAPGQGLEWMGWMNPNSGNTGYAQKFQGRVTMTRDTSTSTVYMELSSLRSEDTAVYYCAREDYYDSSGNFDYWGQGTLVTVSS VL: DIQMTQSPSSLSASVGDRVTITCQASHDINIHLNWYQQKPGKAPKLLIYDASNLETGVPSRFSGSGSGTDFTLTISSLQPEDFATYYCQQAYSLPWTFGQGTKVEIKR | – | 10 to 30 | > 30

Further lines, results first:

FACS geometric mean fold change over Jurkat parental [1] [fold] | FACS geometric mean fold change over Jurkat parental [2] [fold] | FACS geometric mean fold change over Jurkat parental [3] [fold] | Binder
2 to 10 | – | – | Polypeptide No. 286 (scFv, V domains shown, scFv) VH: QVQLVQSGAEVKKPGASVKVSCKASGYTFTSYGISWVRQAPGQGLEWMGWISPNSGVTNYAQKFQGRVTMTRDTSTSTVYMELSSLRSEDTAVYYCVSDDYGAFDYWGQGTLVTVSS VL: EIVMTQSPATLSVSPGERATLSCRASQSVSSSYLAWYQQKPGQAPRLLIYDVSTRASGIPARFSGSGSGTEFTLTISSLQSEDFAVYYCQQYNNWPYTFGQGTKLEIKR
2 to 10 | – | – | Polypeptide No. 263 (scFv, V domains shown, scFv) VH: QVQLVQSGAEVKKPGSSVKVSCKASGGTFSSYAISWVRQAPGQGLEWMGGIIPIVGVANYAQKLQGRVTITADESTSTAYMELSSLRSEDTAVYYCAKDIGGYPSDAFDIWGQGTTVTVSS VL: EIVMTQSPATLSVSPGERATLSCRASQSVSSSYLAWYQQKPGQAPRLLIYDVSTRATGIPARFSGSGSGTEFTLTISSLQSEDFAVYYCQQYGSSPITFGQGTKVEIKR
2 to 10 | – | – | Polypeptide No. 281 (scFv, V domains shown, scFv) VH: QVQLVQSGAEVKKPGASVKVSCKASGYTFNSYGISWVRQAPGQGLEWMGIINPTGGSTTYAQKFQGRVTMTRDTSTSTVYMELSSLRSEDTAVYYCAKDPFVMDVWGQGTTVTVSS VL: EIVMTQSPATLSVSPGERATLSCRASQSVSSSYLAWYQQKPGQAPRLLIYDASARAAGIPARFSGSGSGTEFTLTISSLQSEDFAVYYCQQYYSTPYTFGQGTKLEIKR
2 to 10 | – | – | Polypeptide No. 226 (scFv, V domains shown, scFv) VH: QVQLVQSGAEVKKPGASVKVSCKASGYTFTGYYMHWVRQAPGQGLEWMGIIDPSGGSTSYAQKFQGRVTMTRDTSTSTVYMELSSLRSEDTAVYYCARDRSLLWSGVGGMDVWGQGTTVTVSS VL: DIQMTQSPSSLSASVGDRVTITCRASQGISNYLAWYQQKPGKAPKLLIYGASNLQSGVPSRFSGSGSGTDFTLTISSLQPEDFATYYCQQSYGTPYTFGQGTKLEIKR
2 to 10 | – | – | Polypeptide No. 282 (scFv, V domains shown, scFv) VH: QVQLVQSGAEVKKPGASVKVSCKASGGTFSSYAISWVRQAPGQGLEWMGWMNPNSGDTGYAQKFQGRVTMTRDTSTSTVYMELSSLRSEDTAVYYCARDFEGGGWFDPWGQGTLVTVSS VL: EIVMTQSPATLSVSPGERATLSCRASRSISDYLAWYQQKPGQAPRLLIYDASSRATGIPARFSGSGSGTEFTLTISSLQSEDFAVYYCQQYYTTPLTFGQGTKVEIKR
2 to 10 | – | – | Polypeptide No. 210 (scFv, V domains shown, scFv) VH: QVQLVQSGAEVKKPGSSVKVSCKASGYTLTELSMHWVRQAPGQGLEWMGGIIPISGTTKYAQKFQGRVTITADESTSTAYMELSSLRSEDTAVYYCARASPRYYMDVWGKGTTVTVSS VL: not shown
2 to 10 | – | – | Polypeptide No. 224 (scFv, V domains shown, scFv) VH: QVQLVQSGAEVKKPGSSVKVSCKASGYTFTGYYMHWVRQAPGQGLEWMGVINPIYGTANYALKFQGRVTITADESTSTAYMELSSLRSEDTAVYYCAKAISSGWSNDAFDIWGQGTMVTVSS VL: EIVMTQSPATLSVSPGERATLSCRASQSVSSDFLAWYQQKPGQAPRLLIYDTSSRASGIPARFSGSGSGTEFTLTISSLQSEDFAVYYCQQYAGPPTFGQGTRLEIKR
– | 10 to 30 | > 30 | Polypeptide No. 191 (scFv, V domains shown, scFv) VH: QVQLVQSGAEVKKPGASVKVSCKASGGTFSSYAISWVRQAPGQGLEWMGWMNPNSGNTGYAQKFQGRVTMTRDTSTSTVYMELSSLRSEDTAVYYCAREDYYDSSGNFDYWGQGTLVTVSS VL: DIQMTQSPSSLSASVGDRVTITCQASHDINIHLNWYQQKPGKAPKLLIYDASNLETGVPSRFSGSGSGTDFTLTISSLQPEDFATYYCQQAYSLPWTFGQGTKVEIKR
